From patent publication US20200256880A1, “Neuronal Assay Method Involving Calcineurin” (The Broad Institute, Inc., priority 2017, published 2020)
Like-named read-outs stand apart in the source and are kept apart here.

Key:
[1] = system: phospho-S469 CNAα in rat hippocampal neurons; type: cell-based
CNAα recombinant protein = assay: Western blot of CNAα recombinant protein WT, S469E and S462E/S469E with monoclonal antibody; type: binding
Experimental: The validation of the specificity of the antibody for pS469 was additionally determined by Western blot using CNAα recombinant protein WT (unphosphorylated), the phosphomimic mutant S469E (see examples above) and a double mutant with substitutions of E for S at both positions 462 and 469 (S462E/S469E). […] Levels of total CNAα were used as a loading control and were assessed after stripping of the membranes and incubation with anti-CNAα rabbit by chemiluminescence (bottom panel).

phosphorylated CNAα = target: T1, phosphorylated CNAα (Mus musculus, UniProt P63328); assay: Lambda phosphatase de-phosphorylation specificity test on membrane; type: binding; details: cortical neuron (15DIV) lysates on PVDF membrane, with or without cLTP
T1 construct: protein lysates from cortical neurons (15DIV), either 5 min post-cLTP induction or no cLTP control; endogenous in cells; host or cells: primary cortical neurons (15DIV)
Experimental: To further test the specificity of the murine monoclonal antibody for phosphorylated CNAα, de-phosphorylation experiments were performed using lambda phosphatase on protein fixed in a membrane. Specifically, protein lysates from cortical neurons (15DIV), either 5 min post-cLTP induction or no cLTP control, were separated by SDS-PAGE and subsequently transferred to a PVDF membrane. One section of the membrane was incubated overnight at room temperature with lambda phosphatase (FIG. 13, top panel, right blot), while another section was incubated under the same conditions without phosphatase (FIG. 13, top panel, left blot). Following these incubations, the phosphatase-treated and control membrane sections were incubated with the antibody and antibody binding was detected by chemiluminescence. […] As a loading control, the level of total CNAα was also assessed in both membranes sections after the incubations with or without phosphatase (bottom panel of the figure).

[2] = listed as monoclonal murine anti-S469 CNAα phosphospecific antibody

Molecule	levels of phospho-S469 CNAα within dendrites [1]	recognition of double mutant S462E/S469E (CNAα recombinant protein)	recognition of recombinant protein S469E (CNAα recombinant protein)	recognition of wild-type unphosphorylated CNAα recombinant protein (CNAα recombinant protein)	recognition of double mutant S462E/S469E (CNAα recombinant protein; [2])	recognition of recombinant protein S469E (CNAα recombinant protein; [2])	recognition of wild-type unphosphorylated CNAα recombinant protein (CNAα recombinant protein; [2])	recognition of CNAα with or without lambda phosphatase treatment (phosphorylated CNAα; listed as monoclonal antibody)	recognition of CNAα with or without lambda phosphatase treatment (phosphorylated CNAα; listed as monoclonal murine anti-S469 phosphospecific antibody)
brain-derived neurotrophic factor (protein, UniProt P23560 19-247, looked up) Neurotrophic factor BDNF …: APMKEANIRGQGGLAYPGVRTHGTLESVNGPKAGSRGLTSLADTFEHVIEELLDEDQKVRPNEENNKDADLYTSRVMLSSQVPLEPPLLFLLEEYKNYLDAANMSMRVRRHSDPARRGELSVCDSISEWVTAADKKTAVDMSGGTVTVLEKVPVSKGQLKQYFYETKCNPMGYTKEGCRGIDKRHWNSQCRTTQSYVRALTMDSKKRIGWRFIRIDTSCVCTLTIKRGR	no change								
monoclonal mouse anti-pS469 CNAα antibody: monoclonal mouse antibody with the heavy and light chain variable regions listed in the Sequence Table (antibody, V domains shown) VH: EVQLQQSGAELVRPGASVKLSCTASDFNIKDTYIHWLKQRPEQGLEWIGRIDPANSNPKYDPNFQGKATITTDTSSNTAYLQLSSLTSDDTAVYYCTRRDYYGSGSWFAYWGQGTLVTVSS VL: DIVMTQAAPSVPVTPGESVSISCRSSKSLLHSNGNTYLYWFLQRPGQSPQLLIYRMSNLASGVPDRFSGSGSGTAFTLRINRVEAEDVGVYYCMQHLEYPLTFGAGTKLELK		recognition	recognizes	not	does recognize	does recognize	does not recognize	only able to recognize CNAα in absence of lambda phosphatase treatment	eliminated phosphospecific antibody binding
